T1: full length human MSR1 with a C-terminal Myc tag, on HEK293.Myc.hMSR1 cells (human, UniProt P21757 1-451)
T1 sequence (looked up): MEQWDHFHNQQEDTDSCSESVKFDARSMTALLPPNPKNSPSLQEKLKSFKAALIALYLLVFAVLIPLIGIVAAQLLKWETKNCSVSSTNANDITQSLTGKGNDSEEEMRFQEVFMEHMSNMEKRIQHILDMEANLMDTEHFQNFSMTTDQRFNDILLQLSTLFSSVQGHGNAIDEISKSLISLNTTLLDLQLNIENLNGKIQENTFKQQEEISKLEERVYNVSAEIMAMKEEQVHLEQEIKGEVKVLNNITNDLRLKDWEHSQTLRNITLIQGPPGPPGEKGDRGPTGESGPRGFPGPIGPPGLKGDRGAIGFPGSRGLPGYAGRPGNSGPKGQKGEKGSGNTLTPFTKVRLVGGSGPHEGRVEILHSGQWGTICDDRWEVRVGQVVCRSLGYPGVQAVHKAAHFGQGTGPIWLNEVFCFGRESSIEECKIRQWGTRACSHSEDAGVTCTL

T2: full length monkey MSR1 on HEK293.mfMSR1 cells (Macaca fascicularis, UniProt A0A2K5UWE2 1-451)
T2 construct: whole, on cells
T2 sequence: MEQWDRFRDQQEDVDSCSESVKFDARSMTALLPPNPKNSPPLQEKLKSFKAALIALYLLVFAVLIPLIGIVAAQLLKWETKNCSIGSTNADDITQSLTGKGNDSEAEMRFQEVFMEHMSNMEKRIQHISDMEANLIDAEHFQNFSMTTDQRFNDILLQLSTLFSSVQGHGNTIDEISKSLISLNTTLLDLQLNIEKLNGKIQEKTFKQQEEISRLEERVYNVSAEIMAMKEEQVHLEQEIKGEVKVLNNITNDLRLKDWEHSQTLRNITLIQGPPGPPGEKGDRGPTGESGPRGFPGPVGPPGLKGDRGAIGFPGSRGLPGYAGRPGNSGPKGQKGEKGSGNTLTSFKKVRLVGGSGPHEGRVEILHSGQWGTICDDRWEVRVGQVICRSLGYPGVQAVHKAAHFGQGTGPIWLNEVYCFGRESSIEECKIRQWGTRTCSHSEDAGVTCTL

T3: mouse MSR1 on RAW264.7 cells (mouse, UniProt P30204 1-458)
T3 construct: whole, on cells; also called MSR1 positive RAW264.7 cells
T3 sequence (looked up): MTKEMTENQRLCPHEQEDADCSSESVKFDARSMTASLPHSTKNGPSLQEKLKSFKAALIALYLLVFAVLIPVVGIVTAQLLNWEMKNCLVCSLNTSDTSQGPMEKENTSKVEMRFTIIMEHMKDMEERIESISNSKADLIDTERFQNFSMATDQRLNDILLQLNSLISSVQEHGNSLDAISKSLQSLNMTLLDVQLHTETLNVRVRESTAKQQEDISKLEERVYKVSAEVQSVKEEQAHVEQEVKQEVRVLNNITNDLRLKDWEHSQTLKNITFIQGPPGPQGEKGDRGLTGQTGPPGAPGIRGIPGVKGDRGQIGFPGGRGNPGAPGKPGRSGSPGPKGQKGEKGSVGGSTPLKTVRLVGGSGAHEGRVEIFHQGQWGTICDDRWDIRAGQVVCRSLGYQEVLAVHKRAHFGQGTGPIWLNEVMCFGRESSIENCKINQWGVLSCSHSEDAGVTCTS

B1: H1H27759P2-N297Q (antibody, human IgG1, V domains shown)
VH: EVQLVESGGGFVQPGGSLRLSCAASGFTFSSYAMSWVRQAPGKGLEWVSAISGTGSNTYYADSVKGRFTISRDNSKNTLYLQMNSLRAEDTAVYYCAKDRVTTVTYYFDYWGQGTLVTVSS
VL: not shown
notes: human IgG1 Fc with N297Q; also called H1H27759P-N297Q
B2: H1H27761P2-N297Q (antibody, human IgG1, V domains shown)
VH: EVQLVESGGDLVQPGGSLRLSCSASGFTFNIYAMSWVRQAPGKGLEWVSGISGSGGSTYYADSVKGRFTISRDNSKNTLYFQMNSLRVEDTAVYYCAKKISSSSYYYYAMDVWGQGTTVTVSS
VL: not shown
notes: human IgG1 Fc with N297Q; also called H1H27761P-N297Q
B3: H1H27762P2-N297Q (antibody, human IgG1, V domains shown)
VH: QVQLVQSGAEVKKPGSSVKVSCKASGGTFSRYDISWVRQAPGQGLEWMGGIIPIFGTSNYAQKFQGRVTITTDESTSTVYMELSSLRSEDTAVYYCARGGRYGWFDPWGQGTLVTVSS
VL: not shown
notes: human IgG1 Fc with N297Q; also called H1H27762P-N297Q
B4: H1H27766P2-N297Q (antibody, human IgG1, V domains shown)
VH: EVQLVESGGGLVQPGGSLRLSCAASGFTFSSFAMSWVRQAPGKELEWVSSISGRGGSTYYADSVRGRFTISRDNSKITLYLQMNSLRAEDTAVYYCAKDIVFRYTSSAYWYFDLWGRGTLVTVSS
VL: not shown
notes: human IgG1 Fc with N297Q; also called H1H27766P-N297Q
B5: H1H21234N-N297Q (antibody, human IgG1, V domains shown)
VH: QVQLQESGPGLVKPSETLSLTCTVTGGSISRNYWSWIRQPPGKGLEWIGYIYYSGSIDYNPSLKSRVTISVDTSKNQFSLKLSSMTAADTAVYYCARDRWNWKYGMDVWGQGTTVIVSS
VL: EIVLTQSPGTLSLSPGERATLSCRASQTVRNNYLAWYHQKPGQAPRLLIYGASSRATGIPDRFSGSGSGTDFTLTISRLEPEDFTVYYCHQYGNSPWTFGQGTKMEIKR
notes: human IgG1 Fc with N297Q point mutation (EU numbering)
B6: H1H27729P-N297Q (antibody, human IgG1, V domains shown)
VH: QVQLVESGGGLVKPGGSLRLSCAASGFIFSDYYMSWIRQAPGKGLEWVSYISSSGTTIYGDSVKGRFTMSRDNAKNSLYLQMNSLRAEDTAVYYCARNYALFDYWGQGTLVTVSS
VL: DIQMTQSPSSLSASVGDRVTITCQASQDISKYLNWYQQKPGKAPKLLIYYTSNLETGVPSRFSGSGSGTDFTFTISSLQPEDIATYYCHQSDYLPFTFGPGTKVDIKR
notes: human IgG1 Fc with N297Q

Assays:
[1] = molecular target: T1, full length human MSR1 with a …; assay: cell-based or functional assay
[2] = molecular target: T2, full length monkey MSR1 on …; assay: ECL cell binding, HEK293.mfMSR1 cells, 11 nM
Method: (§1) All cells were washed once with 1×PBS with Ca²⁺/Mg²⁺ and counted with a Cellometer™ Auto T4 cell counter (Nexcelom Bioscience). Approximately 1.0×10⁴ cells were seeded separately onto 96-well carbon electrode plates [MULTI-ARRAY high bind plate, Meso Scale Diagnostics] and incubated for 1 hour at 37° C. Non-specific binding sites were then blocked by 2% BSA (w/v) in PBS with Ca²⁺/Mg²⁺ for 1 hour at room temperature. THP-1 cells were pre-incubated for 0.5 hours at room temperature in sample dilution buffer with: 1) 1 mg/mL Fc receptor block reagents to block Fc gamma receptors on THP-1 cell surface [whole molecule human IgG (Jackson Immunoresearch, Cat #009-000-003) for wells being tested with anti-MSR1-mFc antibodies or 2) whole molecule mlgG (Jackson Immunoresearch, Cat #015-000-003) for wells being tested with anti-MSR1-hFc antibodies. Antibody binding on HEK293.Myc.hMSR1, HEK293.mfMSR1 and HEK293 cells was tested without Fc receptor block reagents. […] Plates were then washed to remove unbound antibodies an AquaMax2000 plate washer with a cell washing head (MDS Analytical Technologies). […] Plates were washed and developed with Read Buffer (Meso Scale Diagnostics, Cat # R92TD-2) according to manufacturer's recommended procedure and luminescent signals were recorded with a SECTOR Imager 600 (Meso Scale Diagnostics). Luminescence intensity, measured in relative light units (RLU), was recorded to indicate the binding intensity of each antibody at the range of concentrations.

[3] = molecular target: T3, mouse MSR1 on RAW264.7 cells; assay: flow cytometry, RAW264.7 cells
Method: To block binding to Fc receptors, RAW264.7 cells were incubated for 30 minutes at 4° C. with 500 pg/mL mouse IgG (Jackson ImmunoResearch, Cat #015-000-003) diluted in staining buffer, while B16F10.9 cells remained in staining buffer. […] The signal to noise (S/N) was determined by calculating the ratio of the anti-MSR1 antibodies or the control antibodies MFI to the unstained sample MFI (Table 11).

[4] = molecular target: T1, full length human MSR1 with a …; assay: ECL cell binding, HEK293.Myc.hMSR1 cells, 11 nM
Method: as §1

Binder | % Inhibition of Dil-Acetylated LDL uptake [1] | % Inhibition of Dil-Oxidized LDL uptake [1] | IC50 of Dil-Acetylated LDL uptake inhibition [1] | IC50 of Dil-Oxidized LDL uptake inhibition [1] | ratio of binding signal (RLU) to isotype control [2] | MFI [3] | S/N (MFI over unstained MFI) [3] | ratio of binding signal (RLU) to isotype control [4]
B1 | 48% | 74% | > 100 nM | > 10 nM | 25 fold | 3290 MFI | 1 | 23 fold
B2 | 29% | 43% | > 100 nM | 9.5 nM | 15 fold | 3840 MFI | 1 | 23 fold
B3 | 38% | 78% | 2.9 nM | 4 nM | 25 fold | 3520 MFI | 1 | 33 fold
B4 | 38% | 72% | 3.5 nM | 3.7 nM | 13 fold | 3810 MFI | 1 | 20 fold
B5 | 34% | 52% | 1.3 nM | 6.1 nM | 35 fold | 7050 MFI | 3 | 43 fold
B6 | 28% | – | 1.2 nM | – | 6 fold | 3480 MFI | 1 | 17 fold

From patent US20190367631A1 (Regeneron, published 2019)
